{"source": "patent US20180298083A1", "about": "(US Dept. of Health and Human Services, published 2018)", "binders": {"B1": {"name": "VRC01 (antibody, V domains shown)", "VH": "QVQLVQSGGQMKKPGESMRISCRASGYEFIDCTLNWIRLAPGKRPEWMGWLKPRGGAVNYARPLQGRVTMTRDVYSDTAFLELRSLTVDDTAVYFCTRGKNCDYNWDFEHWGRGTPVIVSS", "VL": "EIVLTQSPGTLSLSPGETAIISCRTSQYGSLAWYQQRPGQAPRLVIYSGSTRAAGIPDRFSGSRWGPDYNLTISNLESGDFGVYYCQQYEFFGQGTKVQVDI"}, "B2": {"name": "N6 antibody (antibody, V domains shown)", "VH": "RAHLVQSGTAMKKPGASVRVSCQTSGYTFTAHILFWFRQAPGRGLEWVGWIKPQYGAVNFGGGFRDRVTLTRDVYREIAYMDIRGLKPDDTAVYYCARDRSYGDSSWALDAWGQGTTVVVSA", "VL": "YIHVTQSPSSLSVSIGDRVTINCQTSQGVGSDLHWYQHKPGRAPKLLIHHTSSVEDGVPSRFSGSGFHTSFNLTISDLQADDIATYYCQVLQFFGRGSRLHIK", "notes": "also called N6 mAb"}, "B3": {"name": "VRC-PG04 (antibody, V domains shown)", "VH": "QVQLVQSGSGVKKPGASVRVSCWTSEDIFERTELIHWVRQAPGQGLEWIGWVKTVTGAVNFGSPDFRQRVSLTRDRDLFTAHMDIRGLTQGDTATYFCARQKFYTGGQGWYFDLWGRGTLIVVSS", "VL": "EIVLTQSPGTLSLSPGETASLSCTAASYGHMTWYQKKPGQPPKLLIFATSKRASGIPDRFSGSQFGKQYTLTITRMEPEDFARYYCQQLEFFGQGTRLEIR"}}, "key": {"[1]": {"biological_target": "CAAN.A2 (HIV-1)", "assay": "cell-based or functional assay"}, "[2]": {"biological_target": "CAAN.A2 (HIV-1)", "assay": "cell-based or functional assay", "remark": "listed apart in the source"}, "[3]": {"biological_target": "CAAN.A2 (HIV-1)", "assay": "cell-based or functional assay", "remark": "listed apart in the source"}, "[4]": {"biological_target": "Histone", "assay": "Luminex AtheNA Multi-Lyte ANA test"}, "[5]": {"biological_target": "Sm, Smith antigen", "assay": "Luminex AtheNA Multi-Lyte ANA test"}, "[6]": {"biological_target": "T1, SSA, Sjogren's syndrome antigen A", "T1 construct": "also called SSA/Ro", "assay": "Luminex AtheNA Multi-Lyte ANA test"}, "[7]": {"biological_target": "CentrB, centromere B", "sequence (P07199 2-599)": "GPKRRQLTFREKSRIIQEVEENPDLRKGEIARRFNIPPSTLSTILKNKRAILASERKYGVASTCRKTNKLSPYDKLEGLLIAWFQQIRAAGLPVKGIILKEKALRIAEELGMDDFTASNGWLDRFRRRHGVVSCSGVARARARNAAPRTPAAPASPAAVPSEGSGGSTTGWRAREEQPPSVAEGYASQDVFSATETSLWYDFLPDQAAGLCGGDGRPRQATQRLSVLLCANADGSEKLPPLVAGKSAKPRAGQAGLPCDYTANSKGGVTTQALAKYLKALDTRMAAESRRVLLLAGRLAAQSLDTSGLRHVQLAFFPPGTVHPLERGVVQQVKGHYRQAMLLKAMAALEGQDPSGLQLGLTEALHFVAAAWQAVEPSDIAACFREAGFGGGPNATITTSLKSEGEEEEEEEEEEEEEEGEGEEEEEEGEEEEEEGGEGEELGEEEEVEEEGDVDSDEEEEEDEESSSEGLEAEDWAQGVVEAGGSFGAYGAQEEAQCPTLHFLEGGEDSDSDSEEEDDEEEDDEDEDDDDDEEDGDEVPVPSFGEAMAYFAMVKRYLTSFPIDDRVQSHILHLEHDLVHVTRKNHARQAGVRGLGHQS", "assay": "Luminex AtheNA Multi-Lyte ANA test"}, "[8]": {"biological_target": "T2, Jo1 antigen", "T2 construct": "also called Jol", "assay": "Luminex AtheNA Multi-Lyte ANA test"}, "[9]": {"biological_target": "RNP, ribonucleoprotein", "assay": "Luminex AtheNA Multi-Lyte ANA test"}, "[10]": {"biological_target": "T3, SSB, Sjogren syndrome antigen B (Homo sapiens (Human), UniProt P05455 1-408)", "T3 construct": "also called SS-B/La", "T3 sequence": "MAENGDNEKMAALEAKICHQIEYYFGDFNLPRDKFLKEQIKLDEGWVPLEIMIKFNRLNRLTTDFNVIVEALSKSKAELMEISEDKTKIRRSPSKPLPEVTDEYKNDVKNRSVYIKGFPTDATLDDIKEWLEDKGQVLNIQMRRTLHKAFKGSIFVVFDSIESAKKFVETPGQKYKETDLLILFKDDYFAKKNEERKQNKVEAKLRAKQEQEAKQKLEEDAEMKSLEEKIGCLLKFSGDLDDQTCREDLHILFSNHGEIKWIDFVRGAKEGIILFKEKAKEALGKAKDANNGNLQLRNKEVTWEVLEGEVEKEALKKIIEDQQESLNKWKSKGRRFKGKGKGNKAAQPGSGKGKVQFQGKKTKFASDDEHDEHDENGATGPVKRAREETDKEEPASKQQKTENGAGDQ", "assay": "Luminex AtheNA Multi-Lyte ANA test"}, "[11]": {"biological_target": "T3, SSB, Sjogren syndrome antigen B", "assay": "Luminex AtheNA Multi-Lyte ANA test", "remark": "listed apart in the source"}, "[12]": {"biological_target": "T4, monomeric gp120^JRCSF (HIV-1 strain JRCSF, UniProt P20871 32-503)", "T4 construct": "domain: gp120", "assay": "gp120 capture ELISA"}}, "note": "Where two headings read alike, the source gives them in different places.", "data": [{"binder": "B1", "values": [{"measurement": "neutralisation IC50", "setting": "[1]", "value": 1.06, "unit": "µg/mL"}, {"measurement": "neutralisation IC50", "setting": "[2]", "value": 1.06, "unit": "µg/mL"}, {"measurement": "neutralisation IC50", "setting": "[3]", "value": 1.06, "unit": "µg/mL"}]}, {"binder": "B2", "values": [{"measurement": "Luminex reactivity (unit not given)", "setting": "[4]", "value": 50.6}, {"measurement": "Luminex reactivity (unit not given)", "setting": "[5]", "value": 5.2}, {"measurement": "Luminex reactivity (unit not given)", "setting": "[6]", "value": 36.4}, {"measurement": "Luminex reactivity (unit not given)", "setting": "[7]", "value": 22}, {"measurement": "Luminex reactivity (unit not given)", "setting": "[8]", "value": 56.4}, {"measurement": "Luminex reactivity (unit not given)", "setting": "[9]", "value": 16.8}, {"measurement": "Luminex reactivity (unit not given)", "setting": "[10]", "value": 100}, {"measurement": "binding result", "setting": "[11]", "value": "no binding (tested: 50 µg/ml)"}]}, {"binder": "B3", "values": [{"measurement": "Binding affinity relative to WT (%)", "setting": "[12]", "value": 100, "unit": "%"}]}]}
